Source: ChEMBL document CHEMBL2074310, “ATP-dependent organic anion transport system in normal and TR- rat liver canalicular membranes” (Am J Physiol, 1992)

Substrate: O=C1OC(c2ccc(O)c(S(=O)(=O)O)c2)(c2ccc(O)c(S(=O)(=O)O)c2)c2c(Br)c(Br)c(Br)c(Br)c21
Assay: TP_TRANSPORTER: uptake in bile canalicular membrane vesicles from Wistar rat
Type: functional, cell membranes, Bile canalicular membrane vesicle

B1: ATP-binding cassette sub-family C member 2 (Rattus norvegicus) (protein)
chain: MDKFCNSTFWDLSLLESPEADLPLCFEQTVLVWIPLGFLWLLAPWQLYSVYRSRTKRSSITKFYLAKQVFVVFLLILAAIDLSLALTEDTGQATVPPVRYTNPILYLCTWLLVLAVQHSRQWCVRKNSWFLSLFWILSVLCGVFQFQTLIRALLKDSKSNMAYSYLFFVSYGFQIVLLILTAFSGPSDSTQTPSVTASFLSSITFSWYDRTVLKGYKHPLTLEDVWDIDEGFKTRSVTSKFEAAMTKDLQKARQAFQRRLQKSQRKPEATLHGLNKKQSQSQDVLVLEEAKKKSEKTTKDYPKSWLIKSLFKTFHVVILKSFILKLIHDLLVFLNPQLLKLLIGFVKSSNSYVWFGYICAILMFAVTLIQSFCLQSYFQHCFVLGMCVRTTVMSSIYKKALTLSNLARKQYTIGETVNLMSVDSQKLMDATNYMQLVWSSVIQITLSIFFLWRELGPSILAGVGVMVLLIPVNGVLATKIRNIQVQNMKNKDKRLKIMNEILSGIKILKYFAWEPSFQEQVQGIRKKELKNLLRFGQLQSLLIFILQITPILVSVVTFSVYVLVDSANVLNAEKAFTSITLFNILRFPLSMLPMVTSSILQASVSVDRLERYLGGDDLDTSAIRRVSNFDKAVKFSEASFTWDPDLEATIQDVNLDIKPGQLVAVVGTVGSGKSSLVSAMLGEMENVHGHITIQGSTAYVPQQSWIQNGTIKDNILFGSEYNEKKYQQVLKACALLPDLEILPGGDMAEIGEKGINLSGGQKQRVSLARAAYQDADIYILDDPLSAVDAHVGKHIFNKVVGPNGLLAGKTRIFVTHGIHFLPQVDEIVVLGKGTILEKGSYRDLLDKKGVFARNWKTFMKHSGPEGEATVNNDSEAEDDDDGLIPTMEEIPEDAASLAMRRENSLRRTLSRSSRSSSRRGKSLKNSLKIKNVNVLKEKEKEVEGQKLIKKEFVETGKVKFSIYLKYLQAVGWWSILFIILFYGLNNVAFIGSNLWLSAWTSDSDNLNGTNNSSSHRDMRIGVFGALGLAQGICLLISTLWSIYACRNASKALHGQLLTNILRAPMRFFDTTPTGRIVNRFSGDISTVDDLLPQTLRSWMMCFFGIAGTLVMICMATPVFAIIIIPLSILYISVQVFYVATSRQLRRLDSVTKSPIYSHFSETVTGLPIIRAFEHQQRFLAWNEKQIDINQKCVFSWITSNRWLAIRLELVGNLVVFCSALLLVIYRKTLTGDVVGFVLSNALNITQTLNWLVRMTSEAETNIVAVERISEYINVENEAPWVTDKRPPADWPRHGEIQFNNYQVRYRPELDLVLKGITCNIKSGEKVGVVGRTGAGKSSLTNCLFRILESAGGQIIIDGIDVASIGLHDLRERLTIIPQDPILFSGSLRMNLDPFNKYSDEEVWRALELAHLRSFVSGLQLGLLSEVTEGGDNLSIGQRQLLCLGRAVLRKSKILVLDEATAAVDLETDSLIQTTIRKEFSQCTVITIAHRLHTIMDSDKIMVLDNGKIVEYGSPEELLSNRGSFYLMAKEAGIENVNHTEL
**Q.** With B1 as the protein, how does the Km read?
**A.** 31 µM
